In publication PMC3199388:
Substitutions are numbered along the chain they refer to. Like-named read-outs stand apart in the source and are kept apart here.

T1: Dcr1 C-terminal extended dsRBD (Schizosaccharomyces pombe, UniProt Q09884 1258-1358)
T1 sequence: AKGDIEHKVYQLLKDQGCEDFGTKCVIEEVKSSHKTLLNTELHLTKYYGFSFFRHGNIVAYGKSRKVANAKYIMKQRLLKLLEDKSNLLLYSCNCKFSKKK

T2: Dcr1 dsRBD R1322A (loop 4) (Schizosaccharomyces pombe, UniProt Q09884 1258-1358, R1322A)
T2 sequence: T1 sequence with R65A

T3: Dcr1 dsRBD K1265A (helix 1) (Schizosaccharomyces pombe, UniProt Q09884 1258-1358, K1265A)
T3 sequence: T1 sequence with K8A

B1: dsDNA 24 bp (DNAfwd/DNArev) (dsDNA)
DNA 1: GGGATCAATATGCTAAGCGATCCC
DNA 2: GGGATCGCTTAGCATATTGATCCC
B2: dsRNA 24 bp (RNAfwd/RNArev) (dsRNA)
RNA 1: GGGAUCAAUAUGCUAAGCGAUCCC
RNA 2: GGGAUCGCUUAGCAUAUUGAUCCC

Experiments:
Assay in all cases: ITC
[1] = biological target: T1, Dcr1 C-terminal extended dsRBD
[2] = biological target: T2, Dcr1 dsRBD R1322A (loop 4)
[3] = biological target: T3, Dcr1 dsRBD K1265A (helix 1)
[4] = biological target: T1, Dcr1 C-terminal extended dsRBD; remark: listed apart in the source

Row | Binder | Kd [1] | binding result [2] | binding result [3] | Kd [4]
1 | B1 | 1.5 µM | no binding | no binding | 
2 | B2 |  | no binding | no binding | 0.8 µM
